5 substances from article PMC11044841 can be followed below.

For one test, the target named is P121A. Briefly: mass spectrometry of G3BP1-GFP interactome. Particulars: HEK293T G3BP1/2 DKO cells; read off a plot.
The target in the next test is NU205. Briefly: mass spectrometry of G3BP1-GFP interactome. Particulars: HEK293T G3BP1/2 DKO cells; read off a plot.
For another test, the target named is NUP93. Briefly: mass spectrometry of G3BP1-GFP interactome. To be noted: HEK293T G3BP1/2 DKO cells; read off a plot.
The target in a further test is RS3. In words: mass spectrometry of G3BP1-GFP interactome. Particulars: HEK293T G3BP1/2 DKO cells; read off a plot.
The next test concerns the target NUFP2. Briefly: mass spectrometry of G3BP1-GFP interactome. Particulars: HEK293T G3BP1/2 DKO cells; read off a plot.
In a further test the target is RBP2. In words: mass spectrometry of G3BP1-GFP interactome. Particulars: HEK293T G3BP1/2 DKO cells; read off a plot.
In a further test the target is PABP1. Briefly: mass spectrometry of G3BP1-GFP interactome. Particulars: HEK293T G3BP1/2 DKO cells; read off a plot.
The target of the next test is P121C. In words: mass spectrometry of G3BP1-GFP interactome. Particulars: HEK293T G3BP1/2 DKO cells; read off a plot.
A further test addresses IMB1. In words: mass spectrometry of G3BP1-GFP interactome. To be noted: HEK293T G3BP1/2 DKO cells; read off a plot.
Another test deals with PABP4. In words: mass spectrometry of G3BP1-GFP interactome. To be noted: HEK293T G3BP1/2 DKO cells; read off a plot.
The target of the next test is PRC2C. Briefly: mass spectrometry of G3BP1-GFP interactome. Particulars: HEK293T G3BP1/2 DKO cells; read off a plot.
The next test deals with DDX6. In words: mass spectrometry of G3BP1-GFP interactome. To be noted: HEK293T G3BP1/2 DKO cells; read off a plot.
Another test addresses TRAP1. In words: mass spectrometry of G3BP1-GFP interactome. Particulars: HEK293T G3BP1/2 DKO cells; read off a plot.
Test [1] concerns the target GST-NTF2L (GST-tagged NTF2-like domain of G3BP1) (human). Briefly: SPR.

Chain of N-WT (1–25) peptide (P0DTC9 1-25): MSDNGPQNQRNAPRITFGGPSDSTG

For the substance G3BP1-EGFP (from UniProt Q13283) F33W, the other: Log2(fold change) with P121A was 2.9; with NU205, 8.7; with NUP93 it was 8.4; with RS3, -6.4; with NUFP2 it was -9.7; with RBP2, 8.9. Moreover, the other: Log2(fold change) with PABP1 is -4.1; in the test with P121C, 2.5; with IMB1 it was 6.7; with PABP4, -8.9.
Consider G3BP1-EGFP (from UniProt Q13283) F112A, for which the other: Log2(fold change) with PRC2C was 5.8; with DDX6 it was -2.7.
As for G3BP1-EGFP (from UniProt Q13283) F124W, the other: Log2(fold change) stood at 6.2 with IMB1 and 6 with TRAP1.
Regarding G3BP1-EGFP (from UniProt Q13283) V11A, the other: Log2(fold change) in the test with DDX6 is -2.3.
Substance “N-WT (1–25) peptide (from UniProt P0DTC9 1-25)” had a Kd in test [1] of 1.14 µM.
